Measurements from paper PMC9890229.

Tests used:
[1] = molecular target: T1, Hfq;Crc (Pseudomonas aeruginosa;Pseudomonas aeruginosa) (UniProt Q9HUM0+Q51380); test: EMSA; conditions: EMSA: 20 mM Tris-HCl pH 8.0, 40 mM NaCl, 10 mM KCl, 1 mM MgCl2; 200 nM RNA; 15 min at 37 C; 4% PAA gel in 1x TBE at 4 C, SYBR gold
[2] = molecular target: T1, Hfq;Crc (Pseudomonas aeruginosa;Pseudomonas aeruginosa); test: cryo-EM; conditions: EMSA: 20 mM Tris-HCl pH 8.0, 40 mM NaCl, 10 mM KCl, 1 mM MgCl2; 200 nM RNA; 15 min at 37 C; 4% PAA gel in 1x TBE at 4 C, SYBR gold

“GGAACGCAAACGUUUGCGUCUGGAUAAUCUCCUGGAAAAGCCUCAAUACAACGAUAAGAAAAGCUGGAGGAUACACCAUGAAGCGGGUCGCUUCCCGGCGCCUGUUGGCU [rbsB110]” was tested, and the binding [1] was “binds” and the binding [2] was “binds”.
With “GGCUGAGGAGGCUUUACGACGGGCCCCGGGGCGCAUGCCGACGACGCGGCGGCCCGACAAUAAAAACAAAUCAUGGAGUAAGAGAAUGAUCAGAAUGGCGCUCAAGCCACUGGUAGCG [estA118]” the binding [1] was “binds” and the binding [2] was “binds”.
With “GGGCCUUUUUUCGUCCCGAAAAAAUAACAACAAGAGGUGAUAUCCAUGCGUCACGGCGAUAUUUCCAGCAGCAACGACACCGUCGGAGUGGCGGUGGUCAACUAC [amiE105]” the binding [1] was “binds” and the binding [2] was “binds”.
